T1: PUF4 RNA-binding domain (Saccharomyces cerevisiae, UniProt P25339 537-888)
T1 sequence: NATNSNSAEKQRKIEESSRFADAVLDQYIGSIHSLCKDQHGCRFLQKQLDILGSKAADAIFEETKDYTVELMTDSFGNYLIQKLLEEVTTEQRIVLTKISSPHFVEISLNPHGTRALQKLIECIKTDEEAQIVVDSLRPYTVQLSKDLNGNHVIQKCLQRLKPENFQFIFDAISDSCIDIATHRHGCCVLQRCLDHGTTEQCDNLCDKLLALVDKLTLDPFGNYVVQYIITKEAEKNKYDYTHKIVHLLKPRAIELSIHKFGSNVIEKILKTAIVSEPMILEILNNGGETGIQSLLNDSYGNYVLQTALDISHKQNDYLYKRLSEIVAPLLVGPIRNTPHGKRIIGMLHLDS

B1: Ic_S1_P4E.1_K4.1_C4.1_H4.1_A4.1_[T5A]_[A6T]_[T7G]_F4.1_[T8C]_T4.1 (ssRNA)
RNA: UCUCUUUGUAAUGCAUCUCUU
B2: Ic_S1_P4E.1_K4.1_C4.1_H4.1_A4.1_[T5A]_[A6T]_[T7A]_F4.1_[T8C]_[A9C]_T4.1 (ssRNA)
RNA: UCUCUUUGUAAUACCUCUCUU
B3: Ic_S1_P4E.1_K4.1_C4.1_H4.1_A4.1_[T5A]_[A6T]_F4.1_[T8G]_[A9G]_T4.1 (ssRNA)
RNA: UCUCUUUGUAAUUGGUCUCUU
B4: Ib_S1_P3E.1_K3.1_C3.1_H3.1_[A4T]_A3.1_F3.1_[A8C]_T3.1 (ssRNA)
RNA: UCUCUUUGUUUAUCUCUCUU
B5: Ic_S1_P4E.1_K4.1_C4.1_H4.1_A4.1_[T5A]_[A6T]_[T7C]_F4.1_[A9C]_T4.1 (ssRNA)
RNA: UCUCUUUGUAAUCUCUCUCUU
B6: Ic_S1_P4E.1_K4.1_C4.1_H4.1_A4.1_[T5A]_[A6T]_[T7A]_F4.1_T4.1 (ssRNA)
RNA: UCUCUUUGUAAUAUAUCUCUU
B7: Ic_S1_P3E.1_K3.1_C3.1_H3.1_A3.1_[A6C]_F3.1_T3.1 (ssRNA)
RNA: UCUCUUUGUAUCUAUCUCUU
B8: Ib_S1_P3E.1_K3.1_C3.1_H3.1_[A4G]_A3.1_F3.1_[A8C]_T3.1 (ssRNA)
RNA: UCUCUUUGUGUAUCUCUCUU
B9: Ic_S1_P4E.1_K4.1_C4.1_H4.1_A4.1_[T5A]_[A6T]_F4.1_[T8A]_[A9C]_T4.1 (ssRNA)
RNA: UCUCUUUGUAAUUACUCUCUU
B10: Ic_S1_P4E.1_K4.1_C4.1_H4.1_A4.1_[T5A]_[A6T]_[T7C]_F4.1_[T8G]_[A9C]_T4.1 (ssRNA)
RNA: UCUCUUUGUAAUCGCUCUCUU
B11: Ic_S1_P4E.1_K4.1_C4.1_H4.1_A4.1_[T5A]_[A6C]_F4.1_[T8A]_[A9T]_T4.1 (ssRNA)
RNA: UCUCUUUGUAACUAUUCUCUU
B12: Ic_S1_P4E.1_K4.1_C4.1_H4.1_A4.1_[T5A]_[A6T]_[T7G]_F4.1_[T8G]_[A9T]_T4.1 (ssRNA)
RNA: UCUCUUUGUAAUGGUUCUCUU
B13: Ic_S1_P4E.1_K4.1_C4.1_H4.1_A4.1_[T5A]_[A6T]_F4.1_[T8A]_[A9T]_T4.1 (ssRNA)
RNA: UCUCUUUGUAAUUAUUCUCUU
B14: Ic_S1_P4E.1_K4.1_C4.1_H4.1_A4.1_[T5A]_[A6T]_[T7G]_F4.1_[A9C]_T4.1 (ssRNA)
RNA: UCUCUUUGUAAUGUCUCUCUU
B15: Ic_S1_P4E.1_K4.1_C4.1_H4.1_A4.1_[T5A]_[A6C]_F4.1_[A9T]_T4.1 (ssRNA)
RNA: UCUCUUUGUAACUUUUCUCUU
B16: Ic_S1_P4E.1_K4.1_C4.1_H4.1_A4.1_[T5A]_[A6T]_[T7C]_F4.1_[A9T]_T4.1 (ssRNA)
RNA: UCUCUUUGUAAUCUUUCUCUU
B17: Ic_S1_P4E.1_K4.1_C4.1_H4.1_A4.1_[T5A]_[A6C]_F4.1_[T8G]_T4.1 (ssRNA)
RNA: UCUCUUUGUAACUGAUCUCUU
B18: Ic_S1_P4E.1_K4.1_C4.1_H4.1_A4.1_[T5A]_[A6C]_F4.1_[T8A]_[A9G]_T4.1 (ssRNA)
RNA: UCUCUUUGUAACUAGUCUCUU
B19: Ic_S1_P4E.1_K4.1_C4.1_H4.1_A4.1_[T5A]_[A6T]_[T7A]_F4.1_[T8G]_[A9C]_T4.1 (ssRNA)
RNA: UCUCUUUGUAAUAGCUCUCUU
B20: Ic_S1_P4E.1_K4.1_C4.1_H4.1_A4.1_[T5A]_[A6T]_[T7G]_F4.1_[A9G]_T4.1 (ssRNA)
RNA: UCUCUUUGUAAUGUGUCUCUU
B21: Ic_S1_P4E.1_K4.1_C4.1_H4.1_A4.1_[T5A]_[A6T]_[T7A]_F4.1_[T8C]_[A9T]_T4.1 (ssRNA)
RNA: UCUCUUUGUAAUACUUCUCUU
B22: Ic_S1_P4E.1_K4.1_C4.1_H4.1_A4.1_[T5A]_[A6T]_[T7C]_F4.1_[T8A]_[A9T]_T4.1 (ssRNA)
RNA: UCUCUUUGUAAUCAUUCUCUU
B23: Ic_S1_P4E.1_K4.1_C4.1_H4.1_A4.1_[T5A]_[A6C]_F4.1_[T8C]_[A9G]_T4.1 (ssRNA)
RNA: UCUCUUUGUAACUCGUCUCUU
B24: Ic_S1_P4E.1_K4.1_C4.1_H4.1_A4.1_[T5A]_[A6T]_[T7C]_F4.1_[T8C]_[A9T]_T4.1 (ssRNA)
RNA: UCUCUUUGUAAUCCUUCUCUU
B25: Ic_S1_P4E.1_K4.1_C4.1_H4.1_A4.1_[T5A]_[A6T]_[T7C]_F4.1_[T8C]_[A9C]_T4.1 (ssRNA)
RNA: UCUCUUUGUAAUCCCUCUCUU
B26: Ic_S1_P4E.1_K4.1_C4.1_H4.1_A4.1_[T5A]_[A6T]_F4.1_[T8G]_[A9T]_T4.1 (ssRNA)
RNA: UCUCUUUGUAAUUGUUCUCUU
B27: Ic_S1_P4E.1_K4.1_C4.1_H4.1_A4.1_[T5A]_[A6C]_F4.1_[T8C]_T4.1 (ssRNA)
RNA: UCUCUUUGUAACUCAUCUCUU
B28: Ib_S1_P3E.1_K3.1_C3.1_H3.1_[A4G]_A3.1_F3.1_[A8G]_T3.1 (ssRNA)
RNA: UCUCUUUGUGUAUGUCUCUU
B29: Ic_S1_P4E.1_K4.1_C4.1_H4.1_A4.1_[T5A]_[A6T]_[T7C]_F4.1_[A9G]_T4.1 (ssRNA)
RNA: UCUCUUUGUAAUCUGUCUCUU
B30: Ic_S1_P4E.1_K4.1_C4.1_H4.1_A4.1_[T5A]_[A6T]_[T7A]_F4.1_[T8A]_[A9T]_T4.1 (ssRNA)
RNA: UCUCUUUGUAAUAAUUCUCUU
B31: Ic_S1_P4E.1_K4.1_C4.1_H4.1_A4.1_[T5A]_[A6T]_F4.1_[T8G]_[A9C]_T4.1 (ssRNA)
RNA: UCUCUUUGUAAUUGCUCUCUU
B32: Ic_S1_P4E.1_K4.1_C4.1_H4.1_A4.1_[T5A]_[A6T]_[T7C]_F4.1_[T8G]_T4.1 (ssRNA)
RNA: UCUCUUUGUAAUCGAUCUCUU
B33: Ib_S1_P3E.1_K3.1_C3.1_H3.1_[A4C]_A3.1_F3.1_[A8T]_T3.1 (ssRNA)
RNA: UCUCUUUGUCUAUUUCUCUU
B34: Ic_S1_P4E.1_K4.1_C4.1_H4.1_A4.1_[T5A]_[A6T]_F4.1_[T8G]_T4.1 (ssRNA)
RNA: UCUCUUUGUAAUUGAUCUCUU
B35: Ic_S1_P4E.1_K4.1_C4.1_H4.1_A4.1_[T5A]_[A6T]_[T7C]_F4.1_T4.1 (ssRNA)
RNA: UCUCUUUGUAAUCUAUCUCUU
B36: Ic_S1_P4E.1_K4.1_C4.1_H4.1_A4.1_[T5A]_[A6T]_[T7G]_F4.1_T4.1 (ssRNA)
RNA: UCUCUUUGUAAUGUAUCUCUU
B37: Ic_S1_P4E.1_K4.1_C4.1_H4.1_A4.1_[T5A]_[A6T]_[T7A]_F4.1_[A9G]_T4.1 (ssRNA)
RNA: UCUCUUUGUAAUAUGUCUCUU
B38: Ic_S1_P4E.1_K4.1_C4.1_H4.1_A4.1_[T5A]_[A6T]_F4.1_[T8A]_[A9G]_T4.1 (ssRNA)
RNA: UCUCUUUGUAAUUAGUCUCUU
B39: Ic_S1_P4E.1_K4.1_C4.1_H4.1_A4.1_[T5A]_[A6C]_F4.1_[T8G]_[A9T]_T4.1 (ssRNA)
RNA: UCUCUUUGUAACUGUUCUCUU
B40: Ic_S1_P4E.1_K4.1_C4.1_H4.1_A4.1_[T5A]_[A6C]_F4.1_[T8A]_[A9C]_T4.1 (ssRNA)
RNA: UCUCUUUGUAACUACUCUCUU
B41: Ic_S1_P4E.1_K4.1_C4.1_H4.1_A4.1_[T5A]_[A6C]_F4.1_[A9C]_T4.1 (ssRNA)
RNA: UCUCUUUGUAACUUCUCUCUU
B42: Ic_S1_P4E.1_K4.1_C4.1_H4.1_A4.1_[T5A]_[A6T]_[T7A]_F4.1_[T8A]_[A9C]_T4.1 (ssRNA)
RNA: UCUCUUUGUAAUAACUCUCUU
B43: Ic_S1_P4E.1_K4.1_C4.1_H4.1_A4.1_[T5A]_[A6T]_[T7G]_F4.1_[T8G]_[A9C]_T4.1 (ssRNA)
RNA: UCUCUUUGUAAUGGCUCUCUU
B44: Ic_S1_P4E.1_K4.1_C4.1_H4.1_A4.1_[T5A]_[A6C]_F4.1_[T8G]_[A9C]_T4.1 (ssRNA)
RNA: UCUCUUUGUAACUGCUCUCUU
B45: Ic_S1_P4E.1_K4.1_C4.1_H4.1_A4.1_[T5A]_[A6T]_[T7A]_F4.1_[A9C]_T4.1 (ssRNA)
RNA: UCUCUUUGUAAUAUCUCUCUU
B46: Ib_S1_P3E.1_K3.1_C3.1_H3.1_[A4T]_A3.1_F3.1_[A8G]_T3.1 (ssRNA)
RNA: UCUCUUUGUUUAUGUCUCUU
B47: Ic_S1_P4E.1_K4.1_C4.1_H4.1_A4.1_[T5A]_[A6T]_F4.1_[T8C]_[A9G]_T4.1 (ssRNA)
RNA: UCUCUUUGUAAUUCGUCUCUU
B48: Ic_S1_P4E.1_K4.1_C4.1_H4.1_A4.1_[T5A]_[A6C]_F4.1_[A9G]_T4.1 (ssRNA)
RNA: UCUCUUUGUAACUUGUCUCUU
B49: Ic_S1_P4E.1_K4.1_C4.1_H4.1_A4.1_[T5A]_[A6T]_F4.1_[T8C]_[A9T]_T4.1 (ssRNA)
RNA: UCUCUUUGUAAUUCUUCUCUU
B50: Ic_S1_P4E.1_K4.1_C4.1_H4.1_A4.1_[T5A]_[A6C]_F4.1_[T8A]_T4.1 (ssRNA)
RNA: UCUCUUUGUAACUAAUCUCUU
B51: Ic_S1_P4E.1_K4.1_C4.1_H4.1_A4.1_[T5A]_[A6T]_[T7G]_F4.1_[A9T]_T4.1 (ssRNA)
RNA: UCUCUUUGUAAUGUUUCUCUU

biological target: T1, PUF4 RNA-binding domain; assay: Mg; RNA-MaP; 20 mM Na-HEPES pH 7.4, 30 mM KOAc, 0.75 mM MgCl2, 0.1% Tween-20, 5% glycerol, 0.1 mg/mL BSA, 2 mM DTT; 25 C; 0.0125-409.6 nM protein; details: tags: N-His6-TEV cleaved; C-SNAP kept, Cy3B-labelled; label: tethered on chip by stalled RNA polymerase

Binder | Kd [nM]
B1 | 642
B2 | 713
B3 | 1880
B4 | 1280
B5 | 74.6
B6 | 2.68
B7 | 48.6
B8 | 63.7
B9 | 670
B10 | 1820
B11 | 93.1
B12 | 764
B13 | 92.4
B14 | 476
B15 | 58.3
B16 | 56.3
B17 | 674
B18 | 104
B19 | 941
B20 | 105
B21 | 603
B22 | 413
B23 | 726
B24 | 484
B25 | 1070
B26 | 98.4

Binder | Kd [nM]
B27 | 374
B28 | 494
B29 | 76.5
B30 | 172
B31 | 682
B32 | 1160
B33 | 823
B34 | 712
B35 | 8.88
B36 | 11.2
B37 | 12.5
B38 | 126
B39 | 360
B40 | 422
B41 | 113
B42 | 642
B43 | 2140
B44 | 704
B45 | 36
B46 | 1460
B47 | 517
B48 | 62.5
B49 | 123
B50 | 173
B51 | 95.2
